Residue numbers refer to the chain shown, from its start. Values belong to the binder of their own block, whether it stands above or below them.
Tests used:
[1] = target: T1, human ErbB2, full length, on cells (human, UniProt P04626 23-1255); test: cell-based or functional assay
[2] = target: T1, human ErbB2, full length, on cells; test: cell-based or functional assay; remark: listed apart in the source
[3] = target: T1, human ErbB2, full length, on cells; test: cell-based or functional assay; remark: listed apart in the source
[4] = target: T2, human ErbB2 ECD-myc/His fusion protein (human, UniProt P04626 23-652); test: SPR, Biacore 2000 medium resolution; mAb captured on goat anti-human IgG, ErbB2(ECD)-cMyc/His injected; 1:1 fit
T2 construct: Made in-house in 293T cells; also called hErbB2(ECD)/cMyc-His; huErbB2 (ECD)/c-myc-His; not shown: c-myc/His tag of the pSecTag2Hygro vector
Experimental: The binding affinity of eight of the anti-ErbB2 antibodies was measured by medium resolution Biacore. All experiments were performed using a Biacore 2000 instrument.
First, 12 high-density goat α-human IgG antibody surfaces over three CM5 Biacore chips were prepared using routine amine coupling. […] Before each antigen injection cycle, each mAb was captured for six to nine seconds at a 100 μL/min flow rate. A 2-minute wash step followed each capture injection to stabilize each mAb baseline. […] All samples were randomly injected with several mAb capture/buffer inject cycles interspersed for double referencing. […] A flow rate of 100 μL/min. was used for all injection cycles. The data was fit to a 1:1 interaction model using CLAMP.

[5] = target: T1, human ErbB2, full length, on cells; test: cell-based or functional assay; remark: listed apart in the source
[6] = target: T1, human ErbB2, full length, on cells; test: cell-based or functional assay; remark: listed apart in the source
[7] = target: T1, human ErbB2, full length, on cells; test: cell-based or functional assay; remark: listed apart in the source
[8] = target: T2, human ErbB2 ECD-myc/His fusion protein; test: limited antigen ELISA, 31 ng/ml ErbB2 ECD-myc/His coated, supernatant 1:25
Experimental: […] […] Antigen-coated plates were washed three times, blocked with 1% non-fat skim milk/PBS for at least 30 minutes at room temperature, and then washed again three times. Each hybridoma line sample was titrated in 1% non-fat skim-milk/PBS 1:3 for 7 points starting from a 1:25 dilution. […] The next day, plates were washed three times and incubated with 50 μl of 400 ng/ml immunopure Goat anti-human IgG (Fc)-HRP (Pierce catalog #31416) for 1 hour at room temperature. Then, the plates were extensively washed and pat dried on paper towel to remove residual HRP in wells. HRP substrate TMB (enhanced K-blue TMB, Neogen catalog #308177) was added to each well and incubated for 30 min. The reaction was stopped by addition of 1N HCl. Optical density at 450 nm was read on a microplate reader (Titerteck Multiskan Ascent).

[9] = target: T2, human ErbB2 ECD-myc/His fusion protein; test: SPR, Biacore T100 high resolution; mAb captured on goat anti-human IgG, hHer-2(ECD)cMyc injected; 1:1 fit
Experimental: All experiments were performed using a Biacore T100 instrument. First, a high-density goat α human IgG antibody (Caltag H10500) surface was prepared over two CM5 Biacore chips using routine amine coupling. Each mAb was diluted in HBS-P running buffer containing 100 μg/ml Bovine serum albumin (BSA).
A capture level protocol was developed for all five mAbs. Before each antigen injection cycle, each mAb was captured for 15 to 30 seconds at a 20 μL/min flow rate. A 5-minute wash step followed each capture injection to stabilize each mAb baseline. […] The samples were prepared in the running buffer described above. All samples were randomly injected with several mAb capture/buffer inject cycles interspersed for double referencing. […] A flow rate of 50 μL/min. was used for all injection cycles.
All sensorgram data were fit to a 1:1 interaction model using CLAMP.

B1: monoclonal antibody 1.43 (antibody, V domains shown)
VH: EVQLVESGGGLVQPGGSLRLSCAASGFTFSSYWMHWVRQTPGKGLEWVANIKQDGSEKYYVDSVKGRFTISRDNAKNSLHLQMNSLRAEDTAAYYCASFRDYGMDVWGQGTTVTVSS
VL: DIQMTQSPSSLSASVGDRVTITCRASQGISNHLAWFQQKPGKAPKSLIYGASSLQTGVPSKFSGSGSGTDFTLTISSLQPEDFASYFCQQYKGYPITFGQGTRLEIK
- EC50 (ng/ml) n1, inhibition of Heregulin-induced ErbB2 phosphorylation in MCF7 cells [1]: > 10000 ng/mL
- EC50 (ng/ml) n2, inhibition of Heregulin-induced ErbB2 phosphorylation in MCF7 cells [1]: > 10000 ng/mL
- % Inhibition @10 µg/ml, Heregulin-induced MCF7 cell proliferation [2]: 53%
- EC50 (ng/ml), inhibition of Heregulin-induced MCF7 cell proliferation [2]: ~10000 ng/mL

B2: monoclonal antibody 1.71.3 (antibody, V domains shown)
VH: EVQLVESGGGLVQPGGSLRLSCTASGFPFSSYDMHWVRQATGKGLEWVSAIGTAGDTFYPGSVKGRFTISRENAKNSLYLQMNSLRAGDTAVYYCAREGYSSGRYFYYGMDVWGQGTTVTVSS
VL: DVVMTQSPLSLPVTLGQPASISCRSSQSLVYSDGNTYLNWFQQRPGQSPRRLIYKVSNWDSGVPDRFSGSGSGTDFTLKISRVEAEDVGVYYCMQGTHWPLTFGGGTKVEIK
- EC50 (ng/ml) n1, inhibition of Heregulin-induced ErbB2 phosphorylation in MCF7 cells [1]: > 10000 ng/mL
- EC50 (ng/ml), inhibition of Heregulin-induced MCF7 cell proliferation [2]: > 10000 ng/mL

Now from value to binder:

- 1 hr pTyr inhibition % (Heregulin-induced ErbB2 phosphorylation in MCF7 cells, hybridoma supernatant) [3]: 95%
- 24 hr pTyr inhibition % (Heregulin-induced ErbB2 phosphorylation in MCF7 cells, hybridoma supernatant) [3]: 95%
- Kd [4]: 2.9 nM
- koff [4]: 0.000301 s⁻¹
- kon [4]: 104000 M⁻¹ s⁻¹
- N1 % Inhibition @40 µg/ml, BT474 cell proliferation [5]: 35%
- N1 EC50 (ng/ml), inhibition of BT474 cell proliferation [5]: 169 ng/mL
- N2 % Inhibition @40 µg/ml, BT474 cell proliferation [5]: 32%
- N2 EC50 (ng/ml), inhibition of BT474 cell proliferation [5]: 91.1 ng/mL
- % inhibition @36 µg/ml, SKBR3 cell proliferation [6]: 54%
- EC50 (ng/ml), inhibition of SKBR3 cell proliferation [6]: 61.3 ng/mL
- % Inhibition @10 µg/ml (n1), ErbB2 phosphorylation in BT474 cells at 48 hours [7]: 37%
- % Inhibition @10 µg/ml (n2), ErbB2 phosphorylation in BT474 cells at 48 hours [7]: 26%
- EC50 (ng/ml) n1, inhibition of Heregulin-induced ErbB2 phosphorylation in MCF7 cells [1]: 39.9 ng/mL
- EC50 (ng/ml) n2, inhibition of Heregulin-induced ErbB2 phosphorylation in MCF7 cells [1]: 33.7 ng/mL
- % Inhibition @10 µg/ml, Heregulin-induced MCF7 cell proliferation [2]: 95%
- EC50 (ng/ml), inhibition of Heregulin-induced MCF7 cell proliferation [2]: 2040 ng/mL
- LA at 31 ng/ml (OD) [8]: 3.54 OD 450 nm
B3: monoclonal antibody 1.100.1 (antibody, V domains shown)
VH: EVQLVESGGGLVKPGGSLRLSCAASGFTFSSYSMNWVRQAPGKGLEWVSSISSSSSYIYYADSVKGRFTISRDNAKNSLYLQMNSLRAEDTAVYYCARGGDGYNYYYFDYWGQGTLVTVSS
VL: DIVMTQSPDSLAVSLGERATITCKSSQSVFFRSNNKNCLAWYQQRPGQPPNLLIYWASTRESGVPDRFSGSGCGTDFTLTISSLQAEDVAVYYCQQYFGSPFTFGPGTKVDIK
notes: Fully human IgG (gamma/kappa) from a XenoMouse XM3B-3 hybridoma; constant regions not tied to it; also called 1.100.2; 1.100.3

- Kd [4]: 3.5 nM
- koff [4]: 0.000333 s⁻¹
- kon [4]: 94000 M⁻¹ s⁻¹
- N1 % Inhibition @40 µg/ml, BT474 cell proliferation [5]: 39%
- N1 EC50 (ng/ml), inhibition of BT474 cell proliferation [5]: 300 ng/mL
- N2 % Inhibition @40 µg/ml, BT474 cell proliferation [5]: 45%
- N2 EC50 (ng/ml), inhibition of BT474 cell proliferation [5]: 70.9 ng/mL
- Kd [9]: 10.6 nM
- koff [9]: 0.000173 s⁻¹
- kon [9]: 16400 M⁻¹ s⁻¹
- % inhibition @36 µg/ml, SKBR3 cell proliferation [6]: 44%
- EC50 (ng/ml), inhibition of SKBR3 cell proliferation [6]: 42.7 ng/mL
- % Inhibition @10 µg/ml (n1), ErbB2 phosphorylation in BT474 cells at 48 hours [7]: 31%
- % Inhibition @10 µg/ml (n2), ErbB2 phosphorylation in BT474 cells at 48 hours [7]: 33%
- EC50 (ng/ml) n1, inhibition of Heregulin-induced ErbB2 phosphorylation in MCF7 cells [1]: 14.7 ng/mL
- EC50 (ng/ml) n2, inhibition of Heregulin-induced ErbB2 phosphorylation in MCF7 cells [1]: 22.9 ng/mL
- % Inhibition @10 µg/ml, Heregulin-induced MCF7 cell proliferation [2]: 91%
- EC50 (ng/ml), inhibition of Heregulin-induced MCF7 cell proliferation [2]: 633 ng/mL
B4: monoclonal antibody 1.140 (antibody, V domains shown)
VH: B3 VH with G42R
VL: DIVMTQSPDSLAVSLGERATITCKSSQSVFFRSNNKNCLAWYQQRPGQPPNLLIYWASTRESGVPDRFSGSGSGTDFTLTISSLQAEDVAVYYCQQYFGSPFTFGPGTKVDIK
notes: Fully human IgG (gamma/kappa) from a XenoMouse XM3B-3 hybridoma; constant regions not tied to it; also called 1.124

Source: patent US20130089544A1 (AstraZeneca / MedImmune, published 2013)
